Article PMC11648230, “Structure–function analysis of tRNA t^6A-catalysis, assembly, and thermostability of Aquifex aeolicus TsaD2B2 tetramer in complex with TsaE” (The Journal of Biological Chemistry, 2024)

What was measured:
[1] = target: Aquifex aeolicus TsaD^Δ34–382B2 tetramer (Aquifex aeolicus) (UniProt O66986)
[2] = target: Aquifex aeolicus TsaD2B^mut2 tetramer (Aquifex aeolicus | Thermotoga maritima) (UniProt O66986)
[3] = target: Aquifex aeolicus TsaD2B2 tetramer (Aquifex aeolicus) (UniProt O66986)
[4] = substrate: Nc1ncnc2c1ncn2[C@@H]1O[C@H](COP(=O)(O)OP(=O)(O)OP(=O)(O)O)[C@@H](O)[C@H]1O; experiment: NADH-coupled ATPase assay; assay type: biochemical, Aquifex aeolicus; details: 10 uM TsaE alone, 10 mM MgCl2, 100 mM KCl, pH 7.5, 37 °C
From the text: NADH-coupled ATPase assay on A. aeolicus TsaE (AaTsaE)

[5] = substrate: Nc1ncnc2c1ncn2[C@@H]1O[C@H](COP(=O)(O)OP(=O)(O)OP(=O)(O)O)[C@@H](O)[C@H]1O; experiment: NADH-coupled ATPase assay; assay type: biochemical, Aquifex aeolicus; details: 10 uM TsaE with 5 uM TsaD2B2, no tRNA, 10 mM MgCl2, 100 mM KCl, pH 7.5, 37 °C
From the text: NADH-coupled ATPase assay on A. aeolicus TsaD2B2E2

Chain of Aquifex aeolicus TsaD2B2 tetramer (Aquifex aeolicus) (O66986 whole entry, chain 1 of 2): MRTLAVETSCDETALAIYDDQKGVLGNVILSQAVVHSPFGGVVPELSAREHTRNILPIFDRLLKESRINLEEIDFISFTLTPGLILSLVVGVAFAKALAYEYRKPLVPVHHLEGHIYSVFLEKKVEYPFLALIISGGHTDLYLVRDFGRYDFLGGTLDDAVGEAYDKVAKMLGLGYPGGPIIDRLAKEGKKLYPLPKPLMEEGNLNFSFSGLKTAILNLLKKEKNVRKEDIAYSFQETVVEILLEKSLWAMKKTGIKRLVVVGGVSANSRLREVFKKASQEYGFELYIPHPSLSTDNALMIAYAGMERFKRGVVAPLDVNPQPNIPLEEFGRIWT
Chain of Aquifex aeolicus TsaD2B2 tetramer (Aquifex aeolicus) (partner O66494, as listed by the source, chain 2 of 2): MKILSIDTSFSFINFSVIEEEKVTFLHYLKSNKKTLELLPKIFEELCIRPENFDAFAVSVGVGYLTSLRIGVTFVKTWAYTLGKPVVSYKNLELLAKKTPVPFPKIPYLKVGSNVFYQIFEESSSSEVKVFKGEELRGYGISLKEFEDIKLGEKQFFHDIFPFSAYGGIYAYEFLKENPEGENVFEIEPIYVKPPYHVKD
Chain of Aquifex aeolicus TsaD2B^mut2 tetramer (Aquifex aeolicus | Thermotoga maritima) (O66986 whole entry, looked up): as the sequence (O66986 whole entry, chain 1 of 2) above
Chain of Aquifex aeolicus TsaD^Δ34–382B2 tetramer (Aquifex aeolicus) (O66986 other isoform, or with tags, fused parts or gaps mutant, chain 1 of 2): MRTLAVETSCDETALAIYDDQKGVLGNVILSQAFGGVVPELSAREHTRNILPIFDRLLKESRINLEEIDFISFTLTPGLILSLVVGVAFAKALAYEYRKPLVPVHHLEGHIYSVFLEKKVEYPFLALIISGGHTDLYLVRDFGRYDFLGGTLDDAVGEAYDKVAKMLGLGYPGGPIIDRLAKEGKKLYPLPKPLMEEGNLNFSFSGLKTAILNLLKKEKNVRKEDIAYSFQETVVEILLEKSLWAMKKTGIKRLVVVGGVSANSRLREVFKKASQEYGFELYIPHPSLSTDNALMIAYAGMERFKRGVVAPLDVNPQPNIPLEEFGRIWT
Chain of Aquifex aeolicus TsaD^Δ34–382B2 tetramer (Aquifex aeolicus) (partner O66494, as listed by the source mutant, chain 2 of 2): as the sequence (partner O66494, as listed by the source, chain 2 of 2) above

B1: Aquifex aeolicus TsaE (enzyme)
chain: MELLKEVILESEEDTYKLAEEIAQLLKGSEVICLRGTLGAGKTTFVKALAKALKVKNPSAVRSPTFTLVNEYETDKGKLIHIDLYRVPDFDYSEFIGEGILAVEWEERDKPCDIILEIEILDENKRKVRIYRK
- Vmax of ATP to ADP hydrolysis by 10 μM TsaE with 5 μM TsaD^Δ34–382B2 (NADH-coupled assay, 37 °C) [1]: 0.219 µM/s
- kcat of ATP to ADP hydrolysis by 10 μM TsaE with 5 μM TsaD^Δ34–382B2 (NADH-coupled assay, 37 °C) [1]: 0.044 s⁻¹
- Vmax of ATP to ADP hydrolysis by 10 μM TsaE with 5 μM TsaD2B^mut2 (NADH-coupled assay, 37 °C) [2]: 0.125 µM/s
- kcat of ATP to ADP hydrolysis by 10 μM TsaE with 5 μM TsaD2B^mut2 (NADH-coupled assay, 37 °C) [2]: 0.025 s⁻¹
- Vmax of ATP to ADP hydrolysis by 10 μM TsaE with 5 μM TsaD2B2 (NADH-coupled assay, 37 °C); TsaE alone 0.0374 [3]: 0.0982 µM/s
- kcat of ATP to ADP hydrolysis by 10 μM TsaE with 5 μM TsaD2B2 (NADH-coupled assay, 37 °C); TsaE alone 0.007 [3]: 0.02 s⁻¹

B2: A. aeolicus TsaE (AaTsaE) (Aquifex aeolicus VF5) (protein)
chain: B1 chain
notes: recombinant from E. coli (plasmid pET24d-BC11_Eop); monomer
- Km [4]: 96 ± 44.9 µM
- Vmax [4]: 2.24 µM/min
- kcat [4]: 0.007 ± 0.0007 s⁻¹
- kcat/Km [4]: 78 M⁻¹ s⁻¹

B3: A. aeolicus TsaD2B2E2 (Aquifex aeolicus VF5) (protein)
chain: B1 chain
notes: recombinant from E. coli; with tRNA N6-adenosine threonylcarbamoyltransferase; tRNA threonylcarbamoyladenosine biosynthesis protein TsaB
- Km [5]: 228 ± 47.9 µM
- Vmax [5]: 5.89 µM/min
- kcat [5]: 0.02 ± 0.0012 s⁻¹
- kcat/Km [5]: 86 M⁻¹ s⁻¹
